The target of this assay is CD28 (UniProt P10747). Nature of the assay: cell-based or functional assay.

The values that follow come from US7259247.

UniProt P10747, sequence (P10747 19-220 limits assumed): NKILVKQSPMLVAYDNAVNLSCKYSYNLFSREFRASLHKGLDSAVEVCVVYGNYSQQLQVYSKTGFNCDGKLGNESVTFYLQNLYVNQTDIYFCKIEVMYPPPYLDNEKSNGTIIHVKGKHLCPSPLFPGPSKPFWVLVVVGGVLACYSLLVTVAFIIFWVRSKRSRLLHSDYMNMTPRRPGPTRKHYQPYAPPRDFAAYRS

anti-CD28 antibody 9.3: the expression of other activation antigens on CD4+ T cells, suboptimal OKT3, plate-bound antibody costimulation is 4 to 100 fold.
